Data taken from publication PMC7862258.

B1: fibulin-3 (F3): N249Q (protein)
parent chain: MLKALFLTMLTLALVKSQDTEETITYTQCTDGYEWDPVRQQCKDIDECDIVPDACKGGMKCVNHYGGYLCLPKTAQIIVNNEQPQQETQPAEGTSGATTGVVAASSMATSGVLPGGGFVASAAAVAGPEMQTGRNNFVIRRNPADPQRIPSNPSHRIQCAAGYEQSEHNVCQDIDECTAGTHNCRADQVCINLRGSFACQCPPGYQKRGEQCVDIDECTIPPYCHQRCVNTPGSFYCQCSPGFQLAANNYTCVDINECDASNQCAQQCYNILGSFICQCNQGYELSSDRLNCEDIDECRTSSYLCQYQCVNEPGKFSCMCPQGYQVVRSRTCQDINECETTNECREDEMCWNYHGGFRCYPRNPCQDPYILTPENRCVCPVSNAMCRELPQSIVYKYMSIRSDRSVPSDIFQIQATTIYANTINTFRIKSGNENGEFYLRQTSPVSAMLVLVKSLSGPREHIVDLEMLTVSSIGTFRTSSVLRLTIIVGPFSF
B2: fibulin-3 (F3): R140W/N249Q (protein)
parent chain: B1 parent chain
B3: fibulin-3 (F3): D49A/N249Q (protein)
parent chain: B1 parent chain
B4: fibulin-3 (F3): I220F/N249Q (protein)
parent chain: B1 parent chain
B5: fibulin-3 (F3): N249Q/R387Q (protein)
parent chain: B1 parent chain

Key:
[1] = anti-FLAG western blot of cell lysate (intracellular level), HEK293A; conditions: glycan lost; control: WT F3
[2] = anti-FLAG western blot of conditioned media, HEK293A; conditions: glycan lost; for expression_or_secretion, other: relative secretion, % of N249Q F3: control: same variant with N249 glycan (normalised to WT F3), arms normalised to N249Q F3

Protein | expression_or_secretion, percent_of_wt [1] | expression_or_secretion, percent_of_wt ([2]; control: WT F3) | expression_or_secretion, other: relative secretion, % of N249Q F3 [2]
B1 | no change | no change | 
B2 |  |  | no change
B3 |  |  | no change
B4 |  |  | no change
B5 |  |  | no change
